Laboratory results published in US20240066131A1 (Protagonist Therapeutics, Inc., priority 2020, published 2024).
Starred links: 1 amine or outer side, 2 acyl side, 3 side chain; linkers in the order of their positions; H or OH if unused. Non-standard residues stand in square brackets, D forms with d. Residues, ends and D or L forms follow the SMILES beside them. Groups on a side chain read outwards from the residue. *: point of attachment. X14 = O=C(CN(CCC(c1ccccc1)c1ccccc1)[*:1])[*:2]; C18 diacid = O=C(O)CCCCCCCCCCCCCCCCC(=O)*; Dip = N[C@H](C(=O)O)C(c1ccccc1)c1ccccc1; Palmitoyl = CCCCCCCCCCCCCCCC(=O)*; β3hF = N[C@H](CC(=O)O)Cc1ccccc1; Decanoyl = CCCCCCCCCC(=O)*; Isovaleryl = CC(C)CC(=O)*; AEEA = NCCOCCOCC(=O)O; Ahx = NCCCCCC(=O)O

T1: ferroportin (Homo sapiens, UniProt Q9NP59)
T1 sequence (Q9NP59 1-571): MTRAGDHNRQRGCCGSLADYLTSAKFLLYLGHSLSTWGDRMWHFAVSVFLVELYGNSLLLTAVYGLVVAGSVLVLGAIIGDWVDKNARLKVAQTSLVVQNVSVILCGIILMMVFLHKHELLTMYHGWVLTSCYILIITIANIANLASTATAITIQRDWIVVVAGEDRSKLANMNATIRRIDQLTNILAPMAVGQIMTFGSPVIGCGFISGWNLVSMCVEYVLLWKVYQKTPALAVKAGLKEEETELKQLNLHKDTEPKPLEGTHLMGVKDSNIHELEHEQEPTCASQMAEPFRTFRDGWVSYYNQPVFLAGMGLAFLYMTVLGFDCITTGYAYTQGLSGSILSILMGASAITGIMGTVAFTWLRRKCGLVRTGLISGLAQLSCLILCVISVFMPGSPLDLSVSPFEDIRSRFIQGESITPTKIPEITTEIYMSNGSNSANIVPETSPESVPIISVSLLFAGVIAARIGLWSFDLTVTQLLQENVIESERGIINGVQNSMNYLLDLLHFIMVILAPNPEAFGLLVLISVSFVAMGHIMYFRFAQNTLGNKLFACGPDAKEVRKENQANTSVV

T2: ferroportin endogenously expressed on T47D cells (HTB 133, ATCC) (human, UniProt Q9NP59 1-571)
T2 sequence (looked up): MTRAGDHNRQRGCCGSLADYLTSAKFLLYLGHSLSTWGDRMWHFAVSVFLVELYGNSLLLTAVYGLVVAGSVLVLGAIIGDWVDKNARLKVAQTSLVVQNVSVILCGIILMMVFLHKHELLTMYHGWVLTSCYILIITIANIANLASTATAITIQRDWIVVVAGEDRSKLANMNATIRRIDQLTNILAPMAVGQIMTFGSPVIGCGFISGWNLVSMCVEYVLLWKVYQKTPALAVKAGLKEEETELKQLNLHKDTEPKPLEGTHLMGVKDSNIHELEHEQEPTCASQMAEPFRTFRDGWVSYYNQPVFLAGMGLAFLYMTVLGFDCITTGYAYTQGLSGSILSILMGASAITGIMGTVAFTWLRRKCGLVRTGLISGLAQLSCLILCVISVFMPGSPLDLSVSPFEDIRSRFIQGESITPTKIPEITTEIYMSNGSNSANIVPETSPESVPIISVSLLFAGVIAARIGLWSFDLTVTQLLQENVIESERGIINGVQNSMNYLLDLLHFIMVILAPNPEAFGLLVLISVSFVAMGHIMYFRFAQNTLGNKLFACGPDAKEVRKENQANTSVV


Target: T1, ferroportin
Test: FPN activity assay: internalization/degradation of ferroportin-GFP in stably transfected HEK293 cells (loss of GFP fluorescence)
Assay type: cell-based
Details: ferroportin-GFP HEK293 cells, compound incubated at least 18 hours; read-out: FPN IC50
Description: Following internalization, the ferroporin protein is degraded.
A retro inverse peptide is a peptide with a reversed sequence in all D amino acids. An example is that Hy-Glu-Thr-His-NH2 becomes Hy-DHis-DThr-DGlu-NH2. The EC50 of these reference compounds for ferroportin internalization/degradation was determined according to the FPN activity assay described above. These peptides served as control standards.

Molecule	DC50
CC[C@H](C)[C@H](NC(=O)[C@H](C)NC(=O)[C@@H]1CCCN1C(=O)[C@@H](NC(=O)[C@H](Cc1c[nH]cn1)NC(=O)[C@@H](NC(=O)[C@H](CCCCNC(=O)COCCOCCNC(=O)COCCOCCNC(=O)CCCCCNC(=O)CCCCCCCCCCCCCCCCC(=O)O)NC(C)=O)[C@@H](C)O)C(c1ccccc1)c1ccccc1)C(=O)N[C@H](CCCCN)C(=O)N[C@H](CC(N)=O)Cc1ccccc1 [compound 234] (Ac-K([AEEA-AEEA-Ahx-C18 diacid])TH[Dip]PAI[dK][β3hF]-NH2)	> 3000 nM
CCCCCCCCCC(=O)NCCCCCC(=O)NCCCC[C@H](NC(=O)[C@@H](NC(=O)[C@H](C)NC(=O)[C@@H]1CCCN1C(=O)[C@H](Cc1ccccc1)NC(=O)[C@H](Cc1c[nH]cn1)NC(=O)[C@@H](NC(=O)[C@H](CCC(=O)O)NC(=O)CC(C)C)[C@@H](C)O)[C@@H](C)CC)C(=O)N[C@@H](Cc1ccccc1)C(=O)N[C@@H](CCC(=O)O)C(=O)N1CCC[C@H]1C(=O)N[C@@H](CCCNC(=N)N)C(=O)N[C@@H](CO)C(=O)N[C@@H](CCCCN)C(=O)NCC(=O)N[C@@H](C)C(=O)N[C@@H](CCCCN)C(N)=O [compound 244] (Isovaleryl-ETHFPAIK([Ahx-Decanoyl])FEPRSKGAK-NH2)	> 3000 nM

Same assay, conditions: read-out: FPN EC50; Table 6A

Molecule	DC50
CCCCCCCCCCCCCCCC(=O)NCCCCCC(=O)NCCCC[C@H](NC(=O)[C@@H](NC(=O)[C@H](C)NC(=O)[C@@H]1CCCN1C(=O)CN(CCC(c1ccccc1)c1ccccc1)C(=O)[C@H](Cc1c[nH]cn1)NC(=O)[C@@H](NC(=O)[C@H](CCC(=O)O)NC(=O)CC(C)C)[C@@H](C)O)[C@@H](C)CC)C(=O)N[C@H](CC(N)=O)Cc1ccccc1 [compound 89] (Isovaleryl-ETH[X14]PAIK([Ahx-Palmitoyl])[β3hF]-NH2)	> 3000 nM

Target: T2, ferroportin endogenously expressed on …
Test: cell-based or functional assay
Details: not given

Molecule	T47D MSA IC50
XETHXPXX (N-term Cyclohexanoic_Acid; Dpa4; Lys(Ahx_Palm)6; C-term N_Butyl_Phe) [Cyclohexanoic_Acid-E-T-H-[Dpa]-P-[Lys(Ahx_Palm)]-N_Butyl_Phe]	54.3 nM
XETHXPXX (N-term Butyric_Acid; Dpa4; Lys(Ahx_Palm)6; C-term N_Butyl_Phe) [Butyric_Acid-E-T-H-[Dpa]-P-[Lys(Ahx_Palm)]-N_Butyl_Phe]	10.1 nM
XETHXPXX (N-term Isovaleric Acid; Dpa4; Lys(Ahx_Palm)6; C-term N_Pentyl_Phe) [Isovaleric Acid-E-T-H-[Dpa]-P-[Lys(Ahx_Palm)]-N_Pentyl_Phe]	12.7 nM
Isovaleryl-ETH[Dip]PAIK([AEEA-AEEA-Ahx-C18 diacid])[β3hF]-NH2 (SMILES CC[C@H](C)[C@H](NC(=O)[C@H](C)NC(=O)[C@@H]1CCCN1C(=O)[C@@H](NC(=O)[C@H](Cc1c[nH]cn1)NC(=O)[C@@H](NC(=O)[C@H](CCC(=O)O)NC(=O)CC(C)C)[C@@H](C)O)C(c1ccccc1)c1ccccc1)C(=O)N[C@@H](CCCCNC(=O)COCCOCCNC(=O)COCCOCCNC(=O)CCCCCNC(=O)CCCCCCCCCCCCCCCCC(=O)O)C(=O)N[C@H](CC(N)=O)Cc1ccccc1) [Isovaleric Acid-E-T-H-[Dpa]-P-A-I-[Lys(1Peg2_1Peg2_Ahx_C18_Diacid)]-[bhPhe]-NH2]	143 nM
XETHXPXX (N-term Isovaleric Acid; Dpa4; Lys(IsoGlu_Palm)6; C-term N_Butyl_Phe) [Isovaleric Acid-E-T-H-[Dpa]-P-[Lys(IsoGlu_Palm-N_Butyl_Phe]	179 nM
XETHXPXX (N-term Isovaleric Acid; Dpa4; Lys(Ahx_Palm)6; C-term N_Propyl_Phe) [Isovaleric Acid-E-T-H-[Dpa]-P-[Lys(Ahx_Palm)]-N_Propyl_Phe]	15.3 nM
XETHXPXX (N-term Isovaleric Acid; Dpa4; Lys(Ahx_Palm)6; C-term N_Ethyl_Nap) [Isovaleric Acid-E-T-H-[Dpa]-P-[Lys(Ahx_Palm)]-N_Ethyl_Nap]	24.4 nM
XETHXPXX (N-term Isovaleric Acid; Dpa4; Lys(bAla_Palm)6; C-term N_Butyl_Phe) [Isovaleric Acid-E-T-H-[Dpa]-P-[Lys(bAla_Palm-N_Butyl_Phe]	46.1 nM
